From PMC5059767 (2016)

Target: His-PKAC (human wild-type PKAC) (human, UniProt P17612 1-351)
Test: ITC

Kd: 860 nM
Binder: EPTLPREFTRRGRRGAVSVDSLAEL [36i peptide (25 aa ARHGAP36 pseudosubstrate motif)]
